Laboratory results as given in patent publication US20260258115A1.

Assays:
[1] = target: Respiratory Syncytial Virus fusion glycoprotein (RSV F) on RSV-A2 virus (Respiratory Syncytial Virus subtype A (RSV-A2)); assay: cell-based or functional assay
[2] = target: RSV postfusion F (postF), F deltaFP (Respiratory Syncytial Virus); assay: BLI, IgG on anti-human IgG sensor, 100 nM antigen
[3] = target: RSV prefusion F (preF), DS-Cav1 (Respiratory Syncytial Virus); assay: BLI, IgG on anti-human IgG sensor, 100 nM antigen
[4] = target: RSV prefusion F (preF, DS-Cav1) (Respiratory syncytial virus); assay: BLI, IgG on sensor, 100 nM antigen
[5] = target: RSV postfusion F (postF, F deltaFP) (Respiratory syncytial virus); assay: BLI, IgG on sensor, 100 nM antigen

Row | Binder | Neutralization IC50 (RSV subtype A) [1] [µg/mL] | Kd [2] [nM] | Kd [3] [nM] | Kd [4] [nM] | Kd [5] [nM]
1 | ADI-41153 (antibody, V domains shown) VH: EVQLVESGGGLVKPGGSLRLSCAASQFTFSTYDMSWVRQAPGKGLEWVASISSGSTYIYYADSVKGRFTISRDNAKHSLFLQMKSLRAEDTALYYCARQVLYDRGGYYLYYFDHWGQGTLVTVSS VL: DIQVTQSPSSLSASVGDRVTITCRASQTIASYLNWYQQKPGKAPNLLIYAASNLQSGVPSRFSGSGSGTEFTLTINTLQPEDFATYYCQQSYNFPYTFGQGTKVEIK | > 25 | 0.445 | 0.928 | – | –
2 | ADI-41164 (antibody, V domains shown) VH: QVQLVQSGGDLVQPGGSLRLSCAASGFTFSDYEVNWVRQAPGKGLEWLSYISSSGRIIHYADSVRGRFTISRDNAKNSLYLQMNSLRAEDTAVYYCARAAGQWLVTYYYYGMDVWGQGTTVTVSS VL: QSVMTQSPSTLSASVGDTVTITCRASQSIINRLAWYQQKPGKPPKLLIYKSSSSESGVPSKFSGSGSGTEFTLTINSLQPDDFATYYCQHYNSYLYTFGQGTKVEIK | > 25 | 0.962 | – | – | –
3 | ADI-41176 (antibody, V domains shown) VH: EVQLVESGPGLVKPSETLSLTCTVSGGSIGNDYYYWGWIRQPPGKGLEWIGNISYSGSTYYNPSLKSRVTISVGTSKNQFSLKLTSVSAADTAVYHCVGRTFWRDCSSTSCYEYYFDYWGQGTLVTVSS VL: ETTLTQSPTSLSASVGDRVTITCRASQGISNYLAWYQQKPGKVPKVLIYAASTLQSGVSSRFSGSGSGTGFTLTISNLQPEDVATYYCQNYNSAPWTFGQGTKVEIK | > 25 | 4.07 | – | – | –
4 | ADI-41219 (antibody, V domains shown) VH: EVQLVESGGGLVQPAGSLRLSCAASGFTFSNYVMNWVRQAPGKGLEWVSYISSSGRTIHYADSVKGRFTISRDNAKNSLYLEMNSLRAEDTAVYYCARDPNYGGNSNRFDSWGQGTLVTVSS VL: DIVMTQTPSSLSASVGDRVTITCRASQTISNYLNWYQQKPGKAPKLLIFAASSLQSGVPSRFSGSGSGTDFTLTISSLQPEDFATYYCQQSYSAPRVTFGPGTKVDIK | > 25 | 1.28 | – | – | –
5 | ADI-41144 (antibody, V domains shown) VH: EVQLVQSGAEVKKPGGSVKVSCKASGYTFSEYYMHWVRQAPGQGPEWVGRINPKSGRTNYAQNFQGRVTMTRDRSISTVYMDLSRLRSDDTAVYYCARWEVMDYGSGIYYNQDHFDYWGQGTLVTVSS VL: DIRVTQSPSSLSASVGDRVTITCRASQDITNYLAWFQQKPGKAPKSLMYAASTLQSGVPSRFSGSGSGTDFTLTISSLQPEDFATYYCQQYKTYPITFGQGTRLEIK | 0.37 | 0.759 | 0.94 | – | –
6 | ADI-41324 (antibody, V domains shown) VH: EVQLVESGGGLVQPGGSLRLSCAASGFTVSNNYMRWVRQAPGKGLEWVSVIYSSGSTDYADSVKGRFTISRDNSKNTLYLQMNSLRAEDTAVYYCARERTLFYYDSSGFFDYWGQGTLVTVSS VL: ETTLTQSPGTLSLSPGERATLSCRASQSVDSSYLAWYQQKPGQAPRLLIYGASNRATGIPDRFSGSGSGTDFTLTISRLEPEDFAVYYCQQYGRSLTFGGGTKLEIK | – | – | – | 2.47 | 0.426
7 | ADI-41174 (antibody, V domains shown) VH: EVQLVESGAEVEKPGASVKVSCKASGYTFINYDIIWVRQAPGQGLEWMGWISGYKGNTNYAQKLQGRITMSTDTSTRTAYMELRSLTSDDTAVYYCARVGGTARSTTPYYYGMDVWGQGTTVTVSS VL: SYVLTQPPSVSVSPGQTARITCSGDAVPKQFSYWYQQKPGQAPVLVIYKDIERPSGIPERFSGSSSGTTVTLTISGVQAEDEADYYCQSAHTSGTYHVFGTGTKLTVL | > 25 | 0.751 | – | – | –
8 | ADI-41146 (antibody, V domains shown) VH: QVQLVQSGAEVKKPGESLKISCKGSGHSFATFWIGWVRQVPGNGLELMGIINLGDSDTKYSPSFQGQVTISADESIGTAYLQWSSLKASDTAMYYCARVSLPHYYYYMDVWGKGTTVTVSS VL: DIVMTQSPSSVSASVGDRVTITCRASQGISTWLAWYRQKPGKAPELLIYAASRLQSGVPSRFSGSGSGTDFTLTISSLQPEDFATYYCQQANSFLGAFGPGTKLEIK | > 25 | 0.746 | 4.44 | – | –
9 | ADI-41194 (antibody, V domains shown) VH: QVQLQESGPGLVKPSQMLSLTCTVSGDSISSGDYYWSWIRHHPGKGLEWIGYISYSGSTYNNPSLKSRVTVSVDTSKNQFFLKLTSVTAADTAVYYCARATKPYHSYFYMDVWGKGTTVTVSS VL: EIVLTQSPGTLSLSPGERATLSCRASQSGSRSYLAWYQQRPGQAPRLLIYGASNRATGIPDRFSGSGSGTDFTLTISRLEPEDFAVYYCQQYGNAPTFGGGTKVDIK | > 25 | 1.16 | – | – | –
10 | ADI-41341 (antibody, V domains shown) VH: QVQLVQSGAEVKKPGSSVKVSCKASGGTFSSYATHWVRQAPGQGLEWMGGIIPIFGRATYAQKFQGRVTISADESTSTAYMELSSLRSEDTAVYYCARGRDDRSGDHIAFLYHYGMDVWGQGSTVTVSS VL: QSVLTQPPSVSAAPGQKVSISCSGSSSNIGINHASWYQHLPGTAPKLLIYDNNKRPSGIPDRFSGSKSGTSATLGISGLQTGDEAAYYCGTWDTGLSAVVFGGGTKLTVL | – | – | – | 2.83 | 1.97
11 | ADI-41345 (antibody, V domains shown) VH: EVQLVQSGAEVRKPGESLKISCKGSGYNFASYWIAWVRQMPGKGLEWMGIIFPGDSDTRYSPSFQGQVTISVDKSISTAYLQWSSLKASDTAIYYCATSKYTFGYLDWGQGTLVTVSS VL: NFMLTQPHSVSESPGKTVTISCTRSSGSIASNYVQWYQQRPGSAPTTVIYEDNQRPSGVPDRFSGSIDSSSNSASLTISGLKTEDEADYYCQSYDTSNQVFGTGTKVTVL | – | – | – | 2.29 | 0.349
12 | ADI-41346 (antibody, V domains shown) VH: QVQLVQSGPEVKKPGESLKISCTLSASGLTTYWIGWVRQMPAKGLEWMGIIFPGDSDTRYSPSFQGQVTISADKSTNTAYLQWSGLKASDTAIYYCATLQTPVTGLDQWGQGTLVTVSS VL: NFMLTQPHSVSESPGKTVTISCTRSSGNIARSYVQWYQQRPGSAPTTVIHEDDQRPSGVPDRFSGSIDTSSNSASLTISGLKTEDEADYYCQSYDPSNYVFGTGTKVTVL | – | – | – | 1.88 | 0.267
13 | ADI-41347 (antibody, V domains shown) VH: EVQLVESGPGLVKPSGTLSLTCAVSGGSVSSDNWWSWVRQPPGKGIEWIGEIYPSGGTNYNPSLNSRVTISVDKSKNQFSLKLNSVTAADTAIYYCARAPFDSSGYHSNSVWGQGTLVTVSS VL: ETTLTQSPLSLPVTPGEPASISCRSSQSLLHSNGHNYLDWYVQKPGQSPQLLIYLSSNRASGVPDRFSGSGSGTDFTLRISRVEAEDVGVYYCMQPLQTPQTFGQGTKVEIK | – | – | – | 2.6 | 0.521
14 | ADI-41218 (antibody, V domains shown) VH: QVQLVQSGAEVKKPGASVKVSCKASGYTFISDGISWVRQAPGQGLEWMGWINPHNENTNYAQKFQGRVTMTTDTSTSTAYLELRGLRSDDTAVYYCARDPYHWSYLDYWGQGTLVTVSS VL: QSVVTQPPSVSGAPGQRVTITCTGSSSNIGANSDVHWYQQIPGTAPKLLIFGNSNRPSGVPDRFSGSKSGTSASLAITGLQAEDEADYYCQSYDRSLSGSRVFGGGTRLTVL | > 25 | 0.729 | – | – | –
15 | ADI-41156 (antibody, V domains shown) VH: QVQLVQSGGGLVQPGGSLRLSCVASGFIFSSYEMNWVRQAPGKGLEWVSYISSSGSTIYYADSVKGRFTISRDNAKNSLYLQMNSLGAEDTAVYYCARAILYFDYWGQGTLVTVSS VL: GIRLTQSPSSLSASVGDRVTITCRASQSITNYINWYQQKPGKAPKLLIYAISRLQSGVPSRFSGSGSGTDFTLTISSLQPEDFATYYCQQSYSTMYTFGQGTKVEIK | > 25 | 1.7 | – | – | –
16 | ADI-41342 (antibody, V domains shown) VH: QVQLVQSGAEVKKPGSSVKVSCKASGGTLTSYGVSWVRQAPGQGLEWMGGIIPIFGTVDYAQKFQGRVTITADEPTSTAYMELSSLTSDDTAVYYCARDPWVSGPVEFYYYFDVWGRGTLVTVSS VL: DIVLTESPATLSLSPGERATLSCRASQSINNRYLAWYQQKPGQAPRLLIFGASSRATGIPDRFSGSGSGTDFTLTISRLEPEDFAVYYCQQYGSTPPTFGQGTKVEIK | – | – | – | 3.99 | 0.591
17 | ADI-41159 (antibody, V domains shown) VH: EVQLVESGAEVKKPGESLKISCKGSGYSFTTYWIGWVRQMPGKGLEWMGIMYPGDSQTRYSPSFQGQVTISADKSISTAYLQWSSLKASDTAMYYCARGGYCSGGSCYRGLDYWGQGTLVTVSS VL: EIVMTQSPSSLSASVGDRVTITCRASQSISSFLNWYQQKPGKAPNLLIYAASSLLSGVPSRFSGSGSGTDFTLTISSLQPEDFATYYCQQSHSTPQTFGQGTKLEIK | > 25 | 9.87 | – | – | –
18 | ADI-41223 (antibody, V domains shown) VH: QVQLVESGGGVVQPGRSLRISCAASGFTFSNYGMHWVRQAPGKGLEWVAVLSYDGSNEYYADSVKGRFTISRDNSKNTLYLQMNSLRAEDTAVYYCAKNLNDYNISWYKCFDLWGRGTLVTVSS VL: QPVLTQPASVSGSPGQSITISCTGTSSDVGGYNYVSWYQHHPGKAPKLIIYDVNNRPSGVSNRFSGSKSGNTASLTISGLQAEDEADYICSSYTTITTFVVFGGGTKLTVL | > 25 | 1.81 | – | – | –
19 | ADI-41149 (antibody, V domains shown) VH: QVQLVQSGGGVVQPGRSLRLSCAASGFTFSDYGMHWVRQAPGKGLEWVAVIWFDGSNKNYADSVKGRFTISRDNSMNTLYLQMNNLRAEDTAVYYCARAPYSFWSGYYLDYWGQGSLVTVSS VL: DIVMTQSPATLSVSPGERATLSCRASQSISSNLAWYQQKSGQAPRLLIYGASTRATGIPARFSGSGSGTEFTLTISSLQSEDFAVYSCQQYSKWPQTFGQGTKVEIK | > 25 | 0.857 | 4.34 | – | –
